# Data: the supplement of paper PMC5998384
# Tests used:
# HeLa Kyoto [1] = assay: solubility in G1/S (NP-40 vs SDS abundance) (log2 ratio); higher = more soluble; conditions: cell cycle stage: G1/S
# HeLa Kyoto [2] = assay: melting temperature (median over replicates), in situ; higher = more thermally stable
# HeLa Kyoto [3] = assay: solubility change mitosis vs G1/S (difference of NP-40 vs SDS log2 ratios) (log2 ratio difference); higher = more soluble in mitosis
# HeLa Kyoto [4] = assay: thermal stability score vs G1/S (z-score of summed log2 fold changes over temperatures); higher = more thermally stable than in G1/S
# [5] = cell cycle stage: early G1 (4.5 h after nocodazole release)
# 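Wherever melting temperature (median over replicates), in situ is given: HeLa Kyoto cells synchronized by double thymidine or nocodazole block, proteins quantified by TMT10plex mass spectrometry, three independent biological replicates.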
# 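Wherever solubility change mitosis vs G1/S (difference of NP-40 vs SDS log2 ratios) is given: synchronized HeLa Kyoto cells (double thymidine block for G1/S, nocodazole release for mitosis), protein amounts in NP-40 versus SDS lysates quantified by mass spectrometry, three biological replicates.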
# 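Wherever solubility in G1/S (NP-40 vs SDS abundance) is given: HeLa Kyoto cells arrested at G1/S by double thymidine block, proteins quantified by TMT10plex mass spectrometry in mild NP-40 versus SDS extracts, three biological replicates.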
# 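Wherever thermal stability score vs G1/S (z-score of summed log2 fold changes over temperatures) is given: synchronized HeLa Kyoto cells, proteins quantified by TMT10plex mass spectrometry, three biological replicates, mitosis taken 0.5 h after nocodazole release, G1/S directly after double thymidine block.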
Sequence,solubility in G1/S (log2) (HeLa Kyoto [1]),melting temperature (HeLa Kyoto [2]; cell cycle stage: G1/S) [°C],melting temperature (HeLa Kyoto [2]; cell cycle stage: mitosis) [°C],solubility change mitosis (log2) (HeLa Kyoto [3]),thermal stability score (HeLa Kyoto [4]; [5]),thermal stability score (HeLa Kyoto [4]; cell cycle stage: mitosis)
MAFPHRPDAPELPDFSMLKRLARDQLIYLLEQLPGKKDLFIEADLMSPLDRIANVSILKQHEVDKLYKVENKPALSSNEQLCFLVRPRIKNMRYIASLVNADKLAGRTRKYKVIFSPQKFYACEMVLEEEGIYGDVSCDEWAFSLLPLDVDLLSMELPEFFRDYFLEGDQRWINTVAQALHLLSTLYGPFPNCYGIGRCAKMAYELWRNLEEEEDGETKGRRPEIGHIFLLDRDVDFVTALCSQVVYEGLVDDTFRIKCGSVDFGPEVTSSDKSLKVLLNAEDKVFNEIRNEHFSNVFGFLSQKARNLQAQYDRRRGMDIKQMKNFVSQELKGLKQEHRLLSLHIGACESIMKKKTKQDFQELIKTEHALLEGFNIRESTSYIEEHIDRQVSPIESLRLMCLLSITENGLIPKDYRSLKTQYLQSYGPEHLLTFSNLRRAGLLTEQAPGDTLTAVESKVSKLVTDKAAGKITDAFSSLAKRSNFRAISKKLNLIPRVDGEYDLKVPRDMAYVFGGAYVPLSCRIIEQVLERRSWQGLDEVVRLLNCSDFAFTDMTKEDKASSESLRLILVVFLGGCTFSEISALRFLGREKGYRFIFLTTAVTNSARLMEAMSEVKA [VPS33B],-0.121,49.9,49.4,-0.189,0.623,0.549
MPAVSLPPKENALFKRILRCYEHKQYRNGLKFCKQILSNPKFAEHGETLAMKGLTLNCLGKKEEAYELVRRGLRNDLKSHVCWHVYGLLQRSDKKYDEAIKCYRNALKWDKDNLQILRDLSLLQIQMRDLEGYRETRYQLLQLRPAQRASWIGYAIAYHLLEDYEMAAKILEEFRKTQQTSPDKVDYEYSELLLYQNQVLREAGLYREALEHLCTYEKQICDKLAVEETKGELLLQLCRLEDAADVYRGLQERNPENWAYYKGLEKALKPANMLERLKIYEEAWTKYPRGLVPRRLPLNFLSGEKFKECLDKFLRMNFSKGCPPVFNTLRSLYKDKEKVAIIEELVVGYETSLKSCRLFNPNDDGKEEPPTTLLWVQYYLAQHYDKIGQPSIALEYINTAIESTPTLIELFLVKAKIYKHAGNIKEAARWMDEAQALDTADRFINSKCAKYMLKANLIKEAEEMCSKFTREGTSAVENLNEMQCMWFQTECAQAYKAMNKFGEALKKCHEIERHFIEITDDQFDFHTYCMRKITLRSYVDLLKLEDVLRQHPFYFKAARIAIEIYLKLHDNPLTDENKEHEADTANMSDKELKKLRNKQRRAQKKAQIEEEKKNAEKEKQQRNQKKKKDDDDEEIGGPKEELIPEKLAKVETPLEEAIKFLTPLKNLVKNKIETHLFAFEIYFRKEKFLLMLQSVKRAFAIDSSHPWLHECMIRLFNTAVCESKDLSDTVRTVLKQEMNRLFGATNPKNFNETFLKRNSDSLPHRLSAAKMVYYLDPSSQKRAIELATTLDESLTNRNLQTCMEVLEALYDGSLGDCKEAAEIYRANCHKLFPYALAFMPPGYEEDMKITVNGDSSAEAEELANEI [NAA15],-0.262,53.9,52.5,-0.124,0.92,-0.18
MGSSKKHRGEKEAAGTTAAAGTGGATEQPPRHREHKKHKHRSGGSGGSGGERRKRSRERGGERGSGRRGAEAEARSSTHGRERSQAEPSERRVKREKRDDGYEAAASSKTSSGDASSLSIEETNKLRAKLGLKPLEVNAIKKEAGTKEEPVTADVINPMALRQREELREKLAAAKEKRLLNQKLGKIKTLGEDDPWLDDTAAWIERSRQLQKEKDLAEKRAKLLEEMDQEFGVSTLVEEEFGQRRQDLYSARDLQGLTVEHAIDSFREGETMILTLKDKGVLQEEEDVLVNVNLVDKERAEKNVELRKKKPDYLPYAEDESVDDLAQQKPRSILSKYDEELEGERPHSFRLEQGGTADGLRERELEEIRAKLRLQAQSLSTVGPRLASEYLTPEEMVTFKKTKRRVKKIRKKEKEVVVRADDLLPLGDQTQDGDFGSRLRGRGRRRVSEVEEEKEPVPQPLPSDDTRVENMDISDEEEGGAPPPGSPQVLEEDEAELELQKQLEKGRRLRQLQQLQQLRDSGEKVVEIVKKLESRQRGWEEDEDPERKGAIVFNATSEFCRTLGEIPTYGLAGNREEQEELMDFERDEERSANGGSESDGEENIGWSTVNLDEEKQQQDFSASSTTILDEEPIVNRGLAAALLLCQNKGLLETTVQKVARVKAPNKSLPSAVYCIEDKMAIDDKYSRREEYRGFTQDFKEKDGYKPDVKIEYVDETGRKLTPKEAFRQLSHRFHGKGSGKMKTERRMKKLDEEALLKKMSSSDTPLGTVALLQEKQKAQKTPYIVLSGSGKSMNANTITK [SART1],-0.654,50.8,51.6,0.448,0.893,3.51
MKKMSRNVLLQMEEEEDDDDGDIVLENLGQTIVPDLGSLESQHDFRTPEFEEFNGKPDSLFFNDGQRRIDFVLVYEDESRKETNKKGTNEKQRRKRQAYESNLICHGLQLEATRSVLDDKLVFVKVHAPWEVLCTYAEIMHIKLPLKPNDLKNRSSAFGTLNWFTKVLSVDESIIKPEQEFFTAPFEKNRMNDFYIVDRDAFFNPATRSRIVYFILSRVKYQVINNVSKFGINRLVNSGIYKAAFPLHDCKFRRQSEDPSCPNERYLLYREWAHPRSIYKKQPLDLIRKYYGEKIGIYFAWLGYYTQMLLLAAVVGVACFLYGYLNQDNCTWSKEVCHPDIGGKIIMCPQCDRLCPFWKLNITCESSKKLCIFDSFGTLVFAVFMGVWVTLFLEFWKRRQAELEYEWDTVELQQEEQARPEYEARCTHVVINEITQEEERIPFTAWGKCIRITLCASAVFFWILLIIASVIGIIVYRLSVFIVFSAKLPKNINGTDPIQKYLTPQTATSITASIISFIIIMILNTIYEKVAIMITNFELPRTQTDYENSLTMKMFLFQFVNYYSSCFYIAFFKGKFVGYPGDPVYWLGKYRNEECDPGGCLLELTTQLTIIMGGKAIWNNIQEVLLPWIMNLIGRFHRVSGSEKITPRWEQDYHLQPMGKLGLFYEYLEMIIQFGFVTLFVASFPLAPLLALVNNILEIRVDAWKLTTQFRRLVPEKAQDIGAWQPIMQGIAILAVVTNAMIIAFTSDMIPRLVYYWSFSVPPYGDHTSYTMEGYINNTLSIFKVADFKNKSKGNPYSDLGNHTTCRYRDFRYPPGHPQEYKHNIYYWHVIAAKLAFIIVMEHVIYSVKFFISYAIPDVSKRTKSKIQREKYLTQKLLHENHLKDMTKNMGVIAERMIEAVDNNLRPKSE [ANO6],0.0135,54.6,54.3,-0.0681,0.734,0.413
MPPRRSIVEVKVLDVQKRRVPNKHYVYIIRVTWSSGSTEAIYRRYSKFFDLQMQMLDKFPMEGGQKDPKQRIIPFLPGKILFRRSHIRDVAVKRLIPIDEYCKALIQLPPYISQCDEVLQFFETRPEDLNPPKEEHIGKKKSGGDQTSVDPMVLEQYVVVANYQKQESSEISLSVGQVVDIIEKNESGWWFVSTAEEQGWVPATCLEGQDGVQDEFSLQPEEEEKYTVIYPYTARDQDEMNLERGAVVEVIQKNLEGWWKIRYQGKEGWAPASYLKKNSGEPLPPKPGPGSPSHPGALDLDGVSRQQNAVGREKELLSSQRDGRFEGRPVPDGDAKQRSPKMRQRPPPRRDMTIPRGLNLPKPPIPPQVEEEYYTIAEFQTTIPDGISFQAGLKVEVIEKNLSGWWYIQIEDKEGWAPATFIDKYKKTSNASRPNFLAPLPHEVTQLRLGEAAALENNTGSEATGPSRPLPDAPHGVMDSGLPWSKDWKGSKDVLRKASSDMSASAGYEEISDPDMEEKPSLPPRKESIIKSEGELLERERERQRTEQLRGPTPKPPGVILPMMPAKHIPPARDSRRPEPKPDKSRLFQLKNDMGLECGHKVLAKEVKKPNLRPISKSKTDLPEEKPDATPQNPFLKSRPQVRPKPAPSPKTEPPQGEDQVDICNLRSKLRPAKSQDKSLLDGEGPQAVGGQDVAFSRSFLPGEGPGRAQDRTGKQDGLSPKEISCRAPPRPAKTTDPVSKSVPVPLQEAPQQRPVVPPRRPPPPKKTSSSSRPLPEVRGPQCEGHESRAAPTPGRALLVPPKAKPFLSNSLGGQDDTRGKGSLGPWGTGKIGENREKAAAASVPNADGLKDSLYVAVADFEGDKDTSSFQEGTVFEVREKNSSGWWFCQVLSGAPSWEGWIPSNYLRKKP [SH3PXD2B],-0.0158,48.9,49.9,-0.129,-0.513,0.253
MQDGNFLLSALQPEAGVCSLALPSDLQLDRRGAEGPEAERLRAARVQEQVRARLLQLGQQPRHNGAAEPEPEAETARGTSRGQYHTLQAGFSSRSQGLSGDKTSGFRPIAKPAYSPASWSSRSAVDLSCSRRLSSAHNGGSAFGAAGYGGAQPTPPMPTRPVSFHERGGVGSRADYDTLSLRSLRLGPGGLDDRYSLVSEQLEPAATSTYRAFAYERQASSSSSRAGGLDWPEATEVSPSRTIRAPAVRTLQRFQSSHRSRGVGGAVPGAVLEPVARAPSVRSLSLSLADSGHLPDVHGFNSYGSHRTLQRLSSGFDDIDLPSAVKYLMASDPNLQVLGAAYIQHKCYSDAAAKKQARSLQAVPRLVKLFNHANQEVQRHATGAMRNLIYDNADNKLALVEENGIFELLRTLREQDDELRKNVTGILWNLSSSDHLKDRLARDTLEQLTDLVLSPLSGAGGPPLIQQNASEAEIFYNATGFLRNLSSASQATRQKMRECHGLVDALVTSINHALDAGKCEDKSVENAVCVLRNLSYRLYDEMPPSALQRLEGRGRRDLAGAPPGEVVGCFTPQSRRLRELPLAADALTFAEVSKDPKGLEWLWSPQIVGLYNRLLQRCELNRHTTEAAAGALQNITAGDRRWAGVLSRLALEQERILNPLLDRVRTADHHQLRSLTGLIRNLSRNARNKDEMSTKVVSHLIEKLPGSVGEKSPPAEVLVNIIAVLNNLVVASPIAARDLLYFDGLRKLIFIKKKRDSPDSEKSSRAASSLLANLWQYNKLHRDFRAKGYRKEDFLGP [PKP3],-0.223,50.1,48.3,0.099,-0.69,-0.255
MAPSTPLLTVRGSEGLYMVNGPPHFTESTVFPRESGKNCKVCIFSKDGTLFAWGNGEKVNIISVTNKGLLHSFDLLKAVCLEFSPKNTVLATWQPYTTSKDGTAGIPNLQLYDVKTGTCLKSFIQKKMQNWCPSWSEDETLCARNVNNEVHFFENNNFNTIANKLHLQKINDFVLSPGPQPYKVAVYVPGSKGAPSFVRLYQYPNFAGPHAALANKSFFKADKVTMLWNKKATAVLVIASTDVDKTGASYYGEQTLHYIATNGESAVVQLPKNGPIYDVVWNSSSTEFCAVYGFMPAKATIFNLKCDPVFDFGTGPRNAAYYSPHGHILVLAGFGNLRGQMEVWDVKNYKLISKPVASDSTYFAWCPDGEHILTATCAPRLRVNNGYKIWHYTGSILHKYDVPSNAELWQVSWQPFLDGIFPAKTITYQAVPSEVPNEEPKVATAYRPPALRNKPITNSKLHEEEPPQNMKPQSGNDKPLSKTALKNQRKHEAKKAAKQEARSDKSPDLAPTPAPQSTPRNTVSQSISGDPEIDKKIKNLKKKLKAIEQLKEQAATGKQLEKNQLEKIQKETALLQELEDLELGI [EIF2A],0.224,52.1,51.7,-0.121,-0.606,-1.22
MPTTIEREFEELDTQRRWQPLYLEIRNESHDYPHRVAKFPENRNRNRYRDVSPYDHSRVKLQNAENDYINASLVDIEEAQRSYILTQGPLPNTCCHFWLMVWQQKTKAVVMLNRIVEKESVKCAQYWPTDDQEMLFKETGFSVKLLSEDVKSYYTVHLLQLENINSGETRTISHFHYTTWPDFGVPESPASFLNFLFKVRESGSLNPDHGPAVIHCSAGIGRSGTFSLVDTCLVLMEKGDDINIKQVLLNMRKYRMGLIQTPDQLRFSYMAIIEGAKCIKGDSSIQKRWKELSKEDLSPAFDHSPNKIMTEKYNGNRIGLEEEKLTGDRCTGLSSKMQDTMEENSESALRKRIREDRKATTAQKVQQMKQRLNENERKRKRWLYWQPILTKMGFMSVILVGAFVGWTLFFQQNAL [PTPN2],0.0769,49,49.2,-0.142,0.409,1.35
